Data reported in patent US20200048348A1 (TENEOBIO, published 2020).
Where a chain is given by its changes, count along the chain named.

B1: SEQ ID NO 10 (antibody, IgG1, V domains shown)
VH: EVQLVESGGGLVQPGRSLRLSCAASGFTFDNYAMHWVRQAPGKGLEWVSGISWNSGSIGYADSVKGRFTISRDNAKNSLYLQMNSLRAEDTALYYCAKDSRGYGDYSRGGAYWGQGTLVTVSS
VL: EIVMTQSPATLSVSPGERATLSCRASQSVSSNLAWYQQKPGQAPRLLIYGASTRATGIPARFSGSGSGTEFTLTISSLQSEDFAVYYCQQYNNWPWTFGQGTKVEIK
notes: also called FlicAb
B2: SEQ ID NO 1 (antibody, IgG1, V domains shown)
VH: B1 VH with N31D, S107R, R108L
VL: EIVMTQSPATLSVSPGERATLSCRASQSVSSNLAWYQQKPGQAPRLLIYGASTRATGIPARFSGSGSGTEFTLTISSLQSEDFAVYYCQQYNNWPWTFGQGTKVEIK
notes: also called FlicAb
B3: SEQ ID NO 6 (antibody, IgG1, V domains shown)
VH: B1 VH with D30A, G59D
VL: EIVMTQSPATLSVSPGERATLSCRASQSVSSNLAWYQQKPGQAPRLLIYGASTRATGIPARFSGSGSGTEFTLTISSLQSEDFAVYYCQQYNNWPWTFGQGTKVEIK
notes: also called FlicAb
B4: SEQ ID NO 7 (antibody, IgG1, V domains shown)
VH: B1 VH with D30N, A88G
VL: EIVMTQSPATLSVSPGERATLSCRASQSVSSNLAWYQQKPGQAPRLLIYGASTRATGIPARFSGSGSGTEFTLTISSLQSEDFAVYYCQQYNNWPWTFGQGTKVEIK
notes: also called FlicAb
B5: SEQ ID NO 13 (antibody, IgG1, V domains shown)
VH: B1 VH with D30H, R108L
VL: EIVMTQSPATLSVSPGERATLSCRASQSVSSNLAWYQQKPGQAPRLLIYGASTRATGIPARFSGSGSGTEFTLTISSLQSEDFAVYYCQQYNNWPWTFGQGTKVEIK
notes: also called FlicAb

biological target: human CD3 (human, UniProt P07766 23-207; P04234 22-171); experiment: flow cytometry, parental monospecific anti-CD3 on Jurkat cells; antibody concentration not given
Sequence (P07766 23-207, one chain of several): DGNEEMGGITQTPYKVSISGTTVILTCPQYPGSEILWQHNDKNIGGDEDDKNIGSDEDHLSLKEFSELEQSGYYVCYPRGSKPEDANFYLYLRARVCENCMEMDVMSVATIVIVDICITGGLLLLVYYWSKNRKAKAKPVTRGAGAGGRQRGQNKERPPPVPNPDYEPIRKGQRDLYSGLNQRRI

Binder | Jurkat cell bind (MFI)
B1 | 30.5
B2 | 6.1
B3 | 32.7
B4 | 32.4
B5 | 21.4
